Data on 4 molecules can be found in publication PMC9282857, “Adaptor linked K63 di-ubiquitin activates Nedd4/Rsp5 E3 ligase” (eLife, 2022).

The target in assay [1] is T1, Rsp5 WW1-HECT domain (224-809) (S. cerevisiae, UniProt P39940 224-809).
T1 construct: Rsp5 WW1-HECT, S. cerevisiae, residues 224-809; also called purified WW domains from Rsp5; source: E. coli Rosetta (DE3), purified (TALON, Ulp1 cleavage, Superdex 200); not shown: His6, N-terminal, cleaved; SUMO, N-terminal, cleaved
As to the kind of experiment: ITC; Affinity-ITC calorimeter, 25°C; 20 mM Tris-HCl pH 7.5, 150 mM NaCl, 1 mM DTT; independent binding model. The settings on record: both partners purified.

For assay [2], the target named is T2, Rsp5 HECT domain (444-809) (S. cerevisiae, UniProt P39940 444-809).
T2 construct: Rsp5 HECT domain, S. cerevisiae, residues 444-809; also called Rsp5 HECT protein; source: E. coli Rosetta (DE3), purified (TALON, Ulp1 cleavage, Superdex 200); not shown: His6, N-terminal, cleaved; SUMO, N-terminal, cleaved
T2 sequence (looked up): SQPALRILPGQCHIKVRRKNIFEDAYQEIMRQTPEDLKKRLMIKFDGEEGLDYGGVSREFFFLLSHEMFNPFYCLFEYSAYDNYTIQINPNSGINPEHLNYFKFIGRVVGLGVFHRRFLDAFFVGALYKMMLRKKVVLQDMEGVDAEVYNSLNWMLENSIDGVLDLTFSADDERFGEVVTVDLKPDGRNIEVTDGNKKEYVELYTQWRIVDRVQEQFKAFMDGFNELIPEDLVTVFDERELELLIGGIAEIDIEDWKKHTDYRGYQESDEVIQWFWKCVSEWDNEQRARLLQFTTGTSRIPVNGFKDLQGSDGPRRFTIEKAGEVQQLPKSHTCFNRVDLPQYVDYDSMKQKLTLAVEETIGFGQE
The description is as above. As to conditions: both partners purified.

B1: Art5 PY motifs containing region (520-586) (domain or fragment, S. cerevisiae, UniProt P53244 520-586, looked up)
chain: STTTAHLALPQPPPNYHESTNDHLMPALQPLGADSVVLTVPSYEQAQAQASASSYVTGSVPAYCDDD
notes: Art5, S. cerevisiae, residues 520-586 with the PY motifs; also called Art5 PY motif containing peptide; PY motifs of Art5; source: E. coli Rosetta (DE3), purified (Glutathione Sepharose, PreScission cleavage, Superdex 200)
B1: in assay [1], the Kd (usually a measure of binding affinity in units of concentration) turned out to be 3.1 µM.

B2: mono-ubiquitin (WT) (natural protein)
chain: not shown
notes: ubiquitin, S. cerevisiae, amplified from SEY6210 genomic DNA; also called Ub-WT; mono-Ub-WT; source: E. coli Rosetta (DE3), non-tagged, purified (SP Sepharose, Superdex 200)
In turn, B2 showed a Kd in assay [2] of around 201 µM.

B3: K63-linked di-ubiquitin (complex)
chain 1: not shown
chain 2: not shown
modifications: distal ubiquitin; its C-terminus is joined by an isopeptide bond to K63 of the proximal ubiquitin | proximal ubiquitin; K63 carries the distal ubiquitin
notes: ubiquitin, S. cerevisiae; distal ubiquitin of the dimer; proximal ubiquitin of the dimer with an extra D77 after the C-terminal Gly-Gly; also called K63 di-Ub; K63-di-Ub; source: synthesised in vitro from purified Ub K63R and Ub D77 with human E1, Ubc13 and Mms2; purified (SP Sepharose, Superdex 75)
In assay [2], B3 displayed a Kd of 33 µM.

B4: K48-linked di-Ub (complex)
chain 1: not shown
chain 2: not shown
modifications: distal ubiquitin; its C-terminus is joined by an isopeptide bond to K48 of the proximal ubiquitin | proximal ubiquitin; K48 carries the distal ubiquitin
notes: ubiquitin, S. cerevisiae; distal ubiquitin of the dimer; proximal ubiquitin of the dimer with an extra D77 after the C-terminal Gly-Gly; also called K48 di-Ub; source: synthesised in vitro from purified Ub K48R and Ub D77 with human E1 and E2-25K; purified (SP Sepharose, Superdex 75)
In assay [2], B4 gave a Kd of 145 µM.
